# Test results: US7211395 (dated 2007)
# T1: pig serum albumin (pig, UniProt P08835)
# T1 chain: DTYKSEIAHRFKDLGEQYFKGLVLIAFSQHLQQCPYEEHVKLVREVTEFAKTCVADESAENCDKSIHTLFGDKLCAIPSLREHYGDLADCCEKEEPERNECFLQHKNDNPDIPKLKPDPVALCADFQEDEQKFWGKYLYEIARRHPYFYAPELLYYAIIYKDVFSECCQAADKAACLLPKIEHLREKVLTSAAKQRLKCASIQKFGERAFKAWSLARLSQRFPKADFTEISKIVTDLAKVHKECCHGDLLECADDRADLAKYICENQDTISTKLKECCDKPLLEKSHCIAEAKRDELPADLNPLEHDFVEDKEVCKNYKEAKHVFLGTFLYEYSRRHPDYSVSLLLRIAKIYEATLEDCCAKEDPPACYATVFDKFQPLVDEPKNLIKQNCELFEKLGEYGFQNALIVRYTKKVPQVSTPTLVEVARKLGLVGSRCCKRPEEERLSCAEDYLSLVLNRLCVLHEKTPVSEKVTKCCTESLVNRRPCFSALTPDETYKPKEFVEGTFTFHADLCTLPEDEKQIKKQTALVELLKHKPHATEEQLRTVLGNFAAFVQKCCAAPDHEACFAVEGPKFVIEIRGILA
# T2: chicken ovalbumin (chicken, UniProt P01012)
# T2 chain: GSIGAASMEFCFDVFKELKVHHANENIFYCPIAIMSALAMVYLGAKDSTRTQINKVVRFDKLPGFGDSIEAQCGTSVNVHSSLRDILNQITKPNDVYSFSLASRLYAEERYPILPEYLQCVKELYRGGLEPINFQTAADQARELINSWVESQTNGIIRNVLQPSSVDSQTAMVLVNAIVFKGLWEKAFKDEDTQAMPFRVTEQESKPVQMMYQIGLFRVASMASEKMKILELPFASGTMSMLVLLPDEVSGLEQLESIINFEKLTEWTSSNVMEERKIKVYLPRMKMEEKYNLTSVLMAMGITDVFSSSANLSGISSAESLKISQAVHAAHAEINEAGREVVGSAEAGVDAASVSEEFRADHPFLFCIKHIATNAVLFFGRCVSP
# T3: rabbit serum albumin (rabbit, UniProt P49065)
# T3 chain: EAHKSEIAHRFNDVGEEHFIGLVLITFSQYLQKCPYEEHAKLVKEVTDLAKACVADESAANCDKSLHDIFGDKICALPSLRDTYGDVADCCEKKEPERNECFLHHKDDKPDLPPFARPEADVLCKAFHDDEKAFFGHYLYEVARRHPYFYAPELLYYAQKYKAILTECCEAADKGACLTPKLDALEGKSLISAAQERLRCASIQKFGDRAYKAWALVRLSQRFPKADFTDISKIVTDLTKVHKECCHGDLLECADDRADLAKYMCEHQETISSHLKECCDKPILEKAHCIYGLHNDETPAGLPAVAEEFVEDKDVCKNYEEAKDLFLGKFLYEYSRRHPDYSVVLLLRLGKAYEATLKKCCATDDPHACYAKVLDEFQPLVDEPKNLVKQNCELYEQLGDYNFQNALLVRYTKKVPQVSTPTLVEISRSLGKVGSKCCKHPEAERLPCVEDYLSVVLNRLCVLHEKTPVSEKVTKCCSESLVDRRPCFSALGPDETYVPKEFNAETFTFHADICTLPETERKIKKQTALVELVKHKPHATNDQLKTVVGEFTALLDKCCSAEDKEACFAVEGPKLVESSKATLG
# T4: rhesus serum albumin (rhesus macaque, UniProt Q28522)
# T4 chain: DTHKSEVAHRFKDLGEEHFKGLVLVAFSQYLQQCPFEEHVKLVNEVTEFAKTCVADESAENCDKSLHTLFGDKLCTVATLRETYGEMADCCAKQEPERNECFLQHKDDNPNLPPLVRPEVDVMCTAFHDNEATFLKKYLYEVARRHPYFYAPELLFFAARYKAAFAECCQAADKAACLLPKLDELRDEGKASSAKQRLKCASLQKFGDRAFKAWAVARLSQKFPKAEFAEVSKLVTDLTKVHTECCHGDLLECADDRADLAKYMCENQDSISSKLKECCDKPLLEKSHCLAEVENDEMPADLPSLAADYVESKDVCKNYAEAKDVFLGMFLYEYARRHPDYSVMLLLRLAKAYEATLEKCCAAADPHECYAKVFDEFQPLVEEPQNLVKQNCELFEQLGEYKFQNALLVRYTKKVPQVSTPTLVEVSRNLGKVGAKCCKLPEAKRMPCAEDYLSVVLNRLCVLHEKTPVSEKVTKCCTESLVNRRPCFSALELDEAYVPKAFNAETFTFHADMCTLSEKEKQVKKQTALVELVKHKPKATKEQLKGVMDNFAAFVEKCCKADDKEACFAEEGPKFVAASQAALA
# Tests used:
# [1] = target: T1, pig serum albumin; experiment: FP, PBS pH 7.4
# [2] = target: T5, human serum albumin (HSA) (human, UniProt P02768); experiment: FP, pH 7.4, 0.14 M NaCl, 0.1% caprylate
# [3] = target: T2, chicken ovalbumin; experiment: FP, pH 6.2, no NaCl
# [4] = target: T3, rabbit serum albumin; experiment: FP, PBS pH 7.4
# [5] = target: T4, rhesus serum albumin; experiment: FP, pH 6.2, no NaCl
# [6] = target: T5, human serum albumin (HSA); experiment: FP, pH 6.2, 0.14 M NaCl
# [7] = target: T2, chicken ovalbumin; experiment: FP, PBS pH 7.4
# [8] = target: mouse serum albumin (mouse, UniProt P07724); experiment: FP, PBS pH 7.4
# mouse serum albumin, sequence (P07724 25-608): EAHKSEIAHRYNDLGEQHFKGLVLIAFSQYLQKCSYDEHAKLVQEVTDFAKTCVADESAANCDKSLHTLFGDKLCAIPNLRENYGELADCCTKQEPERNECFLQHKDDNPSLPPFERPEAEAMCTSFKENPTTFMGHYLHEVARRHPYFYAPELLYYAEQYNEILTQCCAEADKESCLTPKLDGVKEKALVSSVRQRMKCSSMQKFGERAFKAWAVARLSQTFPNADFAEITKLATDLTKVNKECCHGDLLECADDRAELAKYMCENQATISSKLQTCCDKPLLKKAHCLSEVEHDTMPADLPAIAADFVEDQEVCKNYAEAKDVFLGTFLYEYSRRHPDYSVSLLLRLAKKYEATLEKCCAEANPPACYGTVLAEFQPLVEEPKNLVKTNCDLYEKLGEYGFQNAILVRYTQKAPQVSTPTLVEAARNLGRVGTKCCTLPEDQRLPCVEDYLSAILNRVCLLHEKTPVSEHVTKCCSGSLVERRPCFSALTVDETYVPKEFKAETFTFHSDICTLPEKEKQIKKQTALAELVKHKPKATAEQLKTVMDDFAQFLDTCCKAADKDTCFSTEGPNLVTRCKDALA
binder,measurement,setting,value
"AEGTGDRNMCKFSWIRSPAFCARADPEXK (disulfide cyclic, N-acetyl, C-amide, X = 6-aminohexanoic acid, fluorescein on Lys) [DX-321]",Kd,[1],> 200 µM
same,Kd,[2],75 µM
same,Kd,[3],> 200 µM
same,Kd,[4],> 200 µM
same,Kd,[5],38 µM
same,Kd,[6],9 µM
same,Kd,[7],> 200 µM
same,Kd,[8],> 200 µM
